# Experimental data from patent publication US20050267016A1, “CD-10 activated prodrug compounds” (priority 2001, published 2005).
# Legend:
# Porcine Kidney CD10 [1] = experiment: Hydrolysis by purified CD10; type: biochemical
# Protocol: Reaction products were analyzed by HPLC with fluorescence detection. Rates were essentially linear over the incubation period. The observed product was Leu-doxorubicin.
# [2] = test system: LNCaP (prostate carcinoma) cells; details: ratio of IC50
# Protocol: (§1) Adherent cells, LNCaP (prostate carcinoma), HT-29 (colon carcinoma) and PC-3 (prostate carcinoma), were cultured in DMEM media containing 10% heat inactivated fetal calf serum (FCS). On the day of the study the cells were detached from the plate with a trypsin solution. The collected cells were washed and resuspended at a concentration of 0.25×10^6 cells/ml in DMEM containing 10% FCS. 100 μl of cell suspension were added to 96 well plates and the plates were incubated for 3 hours to allow the cells to adhere. […] The plates were then incubated for 24 hours, pulsed with 10 μl of a 100 μCi/ml ^3H-thymidine and incubated for an additional 24 hours (total incubation time 48 hours). The plates were harvested using a 96 well Harvester (Packard Instruments) and counted on a Packard Top Count Counter. Four parameter logistic curves were fitted to the ^3H-thymidine incorporation as a function of drug molarity using Prism software to determine IC50 values.
# as §1, with “carcinoma), PC-3 (prostate” for “carcinoma), HT-29 (colon”, “and 22 RV1” for “and PC-3”, “with 1:0” for “with 10”
# (§2) The effect of two known inhibitors of CD10 on prodrug activity in Ramos, LNCaP and Ball-1 cells was evaluated. The IC50 of Suc-βAla-Ile-Ala-Leu-Dox was determined in the presence of increasing concentration of the CD10 inhibitors, phosphoramidon and thiorphan.
# Ramos cells (CD10pos) = experiment: cells; details: ratio of IC50
# Protocol: (§3) Suspension cells, BALL-1, Ramos and Namalwa cells were cultured in RPMI media containing 10% heat inactivated fetal calf serum (FCS). On the day of the study, the cells were collected, washed and resuspended at a concentration of 0.5×10^6 cells/ml in RPMI containing 10% FCS. 100 µl of cell suspension was added to 96 well plates. […] Finally 10 μl of a 100 μCi/ml ^3H-thymidine was added per well and the plates were incubated for 24 hours. The plates were harvested using a 96 well Harvester (Packard Instruments) and counted on a Packard Top Count counter. Four parameter logistic curves were fitted to the ^3H-thymidine incorporation as a function of drug molarity using Prism software to determine IC50 values.
# as §2
# Namalwa cells (CD10pos) = experiment: cells; type: cell-based; details: ratio of IC50
# Protocol: as §3
# [3] = Second single dose Maximum Tolerated Dose (SD-MTD) study, 49 days; details: mouse, in vivo
# Protocol: In a second single dose Maximum Tolerated Dose (SD-MTD) study, groups of five normal ICR mice were administered intravenous bolus doses of Suc-βAla-Leu-Ala-Leu-Dox. The mice were observed daily for 49 days and body weights measured twice weekly.
# In a second single dose Maximum Tolerated Dose (SD-MTD) study, groups of five normal ICR mice were administered intravenous bolus doses of Suc-Leu-Ala-Leu-Dox. The mice were observed daily for 49 days and body weights measured twice weekly.
# In a second single dose Maximum Tolerated Dose (SD-MTD) study, groups of five normal ICR mice were administered intravenously bolus doses of Suc-Ile-Ala-Leu-Dox. The mice were observed daily for 49 days and body weights measured twice weekly.
# In a second single dose Maximum Tolerated Dose (SD-MTD) study, groups of five normal ICR mice were administered intravenous bolus doses of Suc-βAla-Ile-Ala-Leu-Dox. The mice were observed daily for 49 days and body weights measured twice weekly.
# LNCaP xenografts = experiment: LNCaP xenograft in SCID mice, Q6DX2, equitoxic comparison (Example 27); type: in vivo, C.B-17.SCID mice
# Protocol: All compounds except Suc-βAla-Leu-Ala-Leu-Dox (three levels) were dosed at two levels with the goal to get a dose response for all compounds.
# Knowing that the LNCaP tumor bearing nude mice have weight loss, we chose very conservative dose levels for each compound estimated to be well-tolerated equitoxic doses based on earlier studies and SD-MTD results. The high dose level for repeat dosing is usually 80% of their SD-MTD, and the low dose level is 80% of the high dose level. Accordingly, groups of ten male CD17.SCID mice, subcutaneously injected with 2.5 million LNCaP cells, were treated intravenously with the compounds at the levels described in Table 22 at six day intervals for a total of two identical doses (Q6DX2).
# LNCaP tumors grew well in SCID mice, but the SCID mice with LNCaP tumor xenografts experienced severe weight loss, as 80% of control mice had more than 25% of weight loss by the end of the study. Nevertheless, the efficacy of different treatments at approximately equitoxic levels were compared based on the time it took for 50% of mice to reach toxic weight loss and the total numbers of mice with toxic weight loss at the end of study.
# [4] = mouse, in vivo, iv, 100 umol/kg
# Protocol: (§4) Plasma was obtained from three individual animals in each group at 5 minutes, 1, 2, 4, or 6 hr.
# [5] = mouse, in vivo, iv, 100 umol/kg; remark: listed apart in the source
# Protocol: as §4
# [6] = Pharmacokinetic/metabolism study, single IV bolus; details: mice
# Protocol: as §4
# Porcine Kidney CD10 [7] = experiment: Hydrolysis by purified CD10; type: biochemical; details: release of Leu-pNA vs Leu-Dox, 37° C., pH 7.4
Compound,"% hydrolysis/10 hr (Porcine Kidney CD10 [1]; 12.5 μg/mL, 37° C., pH 7.4, product Leu-doxorubicin) [% hydrolysis/10 hr]",Fraction hydrolyzed relative to standard (Porcine Kidney CD10 [1]; standard Suc-βAla-Leu-Ala-Leu-Dox),Ratio PC-3:LNCaP [2],Ratio Ball-1:Ramos (Ramos cells (CD10pos)),Ratio Ball-1:Namalwa (Namalwa cells (CD10pos)),MTD [3] [mg/kg],MTD ([3]; iv) [mg/kg],Time: 50% Weight Loss (LNCaP xenografts; 58.3 mg/kg Q6DX2) [days],Time: 100% Weight Loss (LNCaP xenografts; 58.3 mg/kg Q6DX2) [days],Time: 50% Weight Loss (LNCaP xenografts; 70.5 mg/kg Q6DX2) [days],Time: 100% Weight Loss (LNCaP xenografts; 70.5 mg/kg Q6DX2) [days],AUC(0-t) [4] [µM·h],Plasma AUC0-6 hr of AL-Dox or AG-Dox* [5] [µM·h],Plasma AUC0-6 hr of L-Dox or G-Dox* [5] [µM·h],Major Plasma Metabolite [6],rate of cleavage relative to Suc-βAla-Leu-Ala-Leu-Dox (Porcine Kidney CD10 [7]) [times]
COc1cccc2c1C(=O)c1c(O)c3c(c(O)c1C2=O)C[C@@](O)(C(=O)CO)C[C@@H]3O[C@H]1C[C@H](NC(=O)[C@H](CC(C)C)NC(=O)[C@H](C)NC(=O)[C@H](CC(C)C)NC(=O)CCC(=O)O)[C@H](O)[C@H](C)O1 [Suc-Leu-Ala-Leu-Dox],8.3,0.75,50,~30,~35,42,71,33,61,26,47,634,1.6,5.1,Leu-Dox,–
Suc-βAla-Leu-Ala-Leu-pNA,–,–,–,–,–,–,–,–,–,–,–,–,–,–,–,590
